In PMC12416549 (2024):
Residue numbers refer to the chain shown, from its start. Names may count otherwise.

T1: TNFR1 (Homo sapiens, UniProt P19438)
T1 chain: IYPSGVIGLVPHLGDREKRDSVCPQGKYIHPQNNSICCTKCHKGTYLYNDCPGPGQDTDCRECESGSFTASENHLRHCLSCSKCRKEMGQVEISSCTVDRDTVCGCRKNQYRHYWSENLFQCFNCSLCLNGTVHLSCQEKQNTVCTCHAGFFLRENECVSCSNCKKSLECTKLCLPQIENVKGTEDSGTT

B1: K18W (designed binder)
chain: SMEEEVEKAAKEYEKKKWEAIEKHLEKLKAKDKEAAERFLKELEEAAKEYAKDEAKTMSEEEAKRRAKKYKEKVLLSELSEEEQKEIKEAEEKLVRTILKYVEEAAK
B2: S77D (designed binder)
chain: B1 chain with W18K, S77D
B3: E72V (designed binder)
chain: B1 chain with W18K, E72V
B4: Y101T (designed binder)
chain: B1 chain with W18K, Y101T
B5: E26P (designed binder)
chain: B1 chain with W18K, E26P
B6: E4M (designed binder)
chain: B1 chain with E4M, W18K
B7: E82D (designed binder)
chain: B1 chain with W18K, E82D
B8: H24P (designed binder)
chain: B1 chain with W18K, H24P
B9: K29D (designed binder)
chain: B1 chain with W18K, K29D
B10: T57K (designed binder)
chain: B1 chain with W18K, T57K
B11: E4A (designed binder)
chain: B1 chain with E4A, W18K
B12: E86W (designed binder)
chain: B1 chain with W18K, E86W
B13: Y13T (designed binder)
chain: B1 chain with Y13T, W18K
B14: K85I (designed binder)
chain: B1 chain with W18K, K85I
B15: K27C (designed binder)
chain: B1 chain with W18K, K27C
B16: A9I (designed binder)
chain: B1 chain with A9I, W18K
B17: E42F (designed binder)
chain: B1 chain with W18K, E42F
B18: A36P (designed binder)
chain: B1 chain with W18K, A36P
B19: V102C (designed binder)
chain: B1 chain with W18K, V102C
B20: L25R (designed binder)
chain: B1 chain with W18K, L25R
B21: K29T (designed binder)
chain: B1 chain with W18K, K29T
B22: V95T (designed binder)
chain: B1 chain with W18K, V95T
B23: T57C (designed binder)
chain: B1 chain with W18K, T57C
B24: L79A (designed binder)
chain: B1 chain with W18K, L79A
B25: E4I (designed binder)
chain: B1 chain with E4I, W18K
B26: L76A (designed binder)
chain: B1 chain with W18K, L76A
B27: L94V (designed binder)
chain: B1 chain with W18K, L94V
B28: E19D (designed binder)
chain: B1 chain with W18K, E19D
B29: L28N (designed binder)
chain: B1 chain with W18K, L28N
B30: E83L (designed binder)
chain: B1 chain with W18K, E83L
B31: K33V (designed binder)
chain: B1 chain with W18K, K33V
B32: E72K (designed binder)
chain: B1 chain with W18K, E72K
B33: V74F (designed binder)
chain: B1 chain with W18K, V74F
B34: V6N (designed binder)
chain: B1 chain with V6N, W18K
B35: I98Y (designed binder)
chain: B1 chain with W18K, I98Y
B36: E5Q (designed binder)
chain: B1 chain with E5Q, W18K
B37: E104C (designed binder)
chain: B1 chain with W18K, E104C
B38: K33D (designed binder)
chain: B1 chain with W18K, K33D
B39: L99E (designed binder)
chain: B1 chain with W18K, L99E
B40: Y70Q (designed binder)
chain: B1 chain with W18K, Y70Q
B41: Y50G (designed binder)
chain: B1 chain with W18K, Y50G
B42: H24D (designed binder)
chain: B1 chain with W18K, H24D
B43: E44H (designed binder)
chain: B1 chain with W18K, E44H
B44: A67R (designed binder)
chain: B1 chain with W18K, A67R
B45: I98S (designed binder)
chain: B1 chain with W18K, I98S
B46: V95F (designed binder)
chain: B1 chain with W18K, V95F
B47: E60W (designed binder)
chain: B1 chain with W18K, E60W
B48: E82L (designed binder)
chain: B1 chain with W18K, E82L
B49: S1I (designed binder)
chain: B1 chain with S1I, W18K
B50: T57Q (designed binder)
chain: B1 chain with W18K, T57Q
B51: A35S (designed binder)
chain: B1 chain with W18K, A35S
B52: V6W (designed binder)
chain: B1 chain with V6W, W18K
B53: A51Q (designed binder)
chain: B1 chain with W18K, A51Q
B54: R66V (designed binder)
chain: B1 chain with W18K, R66V
B55: E82M (designed binder)
chain: B1 chain with W18K, E82M

Target: T1, TNFR1
Assay: yeast display SC50

**Q.** With B1 as the binder, how does the “apparent Kd (screen)” value read?
**A.** Its value is 0.79 nM.

**Q.** Which “apparent Kd (screen)” value does the source give for B2 here?
**A.** Its value is 11.4 nM.

**Q.** Which “apparent Kd (screen)” value does the source give for B3 here?
**A.** Its value is 1.27 nM.

**Q.** B4 was tested. Which “apparent Kd (screen)” value did it give?
**A.** Its value is 0.49 nM.

**Q.** Which “apparent Kd (screen)” value does the source give for B5 here?
**A.** The value was 22.2 nM.

**Q.** With B6 as the binder, how does the “apparent Kd (screen)” value read?
**A.** The value was 0.653 nM.

**Q.** B7 was tested. Which “apparent Kd (screen)” value did it give?
**A.** The value was 1.05 nM.

**Q.** How did the “apparent Kd (screen)” value turn out when B8 was run?
**A.** The value was 12.5 nM.

**Q.** How did the “apparent Kd (screen)” value turn out when B9 was run?
**A.** Its value is 0.49 nM.

**Q.** With B10 as the binder, how does the “apparent Kd (screen)” value read?
**A.** Its value is 0.446 nM.

**Q.** Which “apparent Kd (screen)” value does the source give for B11 here?
**A.** Its value is 0.539 nM.

**Q.** With B12 as the binder, how does the “apparent Kd (screen)” value read?
**A.** The value was 1.54 nM.

**Q.** With B13 as the binder, how does the “apparent Kd (screen)” value read?
**A.** The value was 1.69 nM.

**Q.** With B14 as the binder, how does the “apparent Kd (screen)” value read?
**A.** Its value is 0.539 nM.

**Q.** For B15, which “apparent Kd (screen)” value is on record?
**A.** Its value is 0.593 nM.

**Q.** Which “apparent Kd (screen)” value does the source give for B16 here?
**A.** Its value is 0.446 nM.

**Q.** B17 was tested. Which “apparent Kd (screen)” value did it give?
**A.** Its value is 12.5 nM.

**Q.** For B18, which “apparent Kd (screen)” value is on record?
**A.** The value was 0.446 nM.

**Q.** For B19, which “apparent Kd (screen)” value is on record?
**A.** Its value is 1.4 nM.

**Q.** How did the “apparent Kd (screen)” value turn out when B20 was run?
**A.** The value was 1.69 nM.

**Q.** For B21, which “apparent Kd (screen)” value is on record?
**A.** Its value is 0.593 nM.

**Q.** How did the “apparent Kd (screen)” value turn out when B22 was run?
**A.** Its value is 13.8 nM.

**Q.** For B23, which “apparent Kd (screen)” value is on record?
**A.** Its value is 2.73 nM.

**Q.** B24 was tested. Which “apparent Kd (screen)” value did it give?
**A.** Its value is 2.73 nM.

**Q.** How did the “apparent Kd (screen)” value turn out when B25 was run?
**A.** Its value is 1.86 nM.

**Q.** For B26, which “apparent Kd (screen)” value is on record?
**A.** Its value is 4.83 nM.

**Q.** For B27, which “apparent Kd (screen)” value is on record?
**A.** Its value is 0.446 nM.

**Q.** B28 was tested. Which “apparent Kd (screen)” value did it give?
**A.** Its value is 0.446 nM.

**Q.** With B29 as the binder, how does the “apparent Kd (screen)” value read?
**A.** The value was 1.16 nM.

**Q.** B30 was tested. Which “apparent Kd (screen)” value did it give?
**A.** The value was 1.27 nM.

**Q.** With B31 as the binder, how does the “apparent Kd (screen)” value read?
**A.** The value was 0.446 nM.

**Q.** For B32, which “apparent Kd (screen)” value is on record?
**A.** Its value is 9.41 nM.

**Q.** B33 was tested. Which “apparent Kd (screen)” value did it give?
**A.** The value was 9.41 nM.

**Q.** With B34 as the binder, how does the “apparent Kd (screen)” value read?
**A.** Its value is 2.73 nM.

**Q.** B35 was tested. Which “apparent Kd (screen)” value did it give?
**A.** The value was 5.84 nM.

**Q.** Which “apparent Kd (screen)” value does the source give for B36 here?
**A.** Its value is 0.446 nM.

**Q.** How did the “apparent Kd (screen)” value turn out when B37 was run?
**A.** The value was 1.27 nM.

**Q.** How did the “apparent Kd (screen)” value turn out when B38 was run?
**A.** Its value is 1.05 nM.

**Q.** B39 was tested. Which “apparent Kd (screen)” value did it give?
**A.** Its value is 12.5 nM.

**Q.** B40 was tested. Which “apparent Kd (screen)” value did it give?
**A.** The value was 5.84 nM.

**Q.** Which “apparent Kd (screen)” value does the source give for B41 here?
**A.** Its value is 10.4 nM.

**Q.** Which “apparent Kd (screen)” value does the source give for B42 here?
**A.** Its value is 1.4 nM.

**Q.** B43 was tested. Which “apparent Kd (screen)” value did it give?
**A.** Its value is 3 nM.

**Q.** How did the “apparent Kd (screen)” value turn out when B44 was run?
**A.** The value was 7.07 nM.

**Q.** B45 was tested. Which “apparent Kd (screen)” value did it give?
**A.** The value was 11.4 nM.

**Q.** How did the “apparent Kd (screen)” value turn out when B46 was run?
**A.** The value was 13.8 nM.

**Q.** With B47 as the binder, how does the “apparent Kd (screen)” value read?
**A.** Its value is 0.446 nM.

**Q.** For B48, which “apparent Kd (screen)” value is on record?
**A.** The value was 0.718 nM.

**Q.** Which “apparent Kd (screen)” value does the source give for B49 here?
**A.** The value was 0.79 nM.

**Q.** For B50, which “apparent Kd (screen)” value is on record?
**A.** Its value is 0.446 nM.

**Q.** Which “apparent Kd (screen)” value does the source give for B51 here?
**A.** Its value is 0.79 nM.

**Q.** How did the “apparent Kd (screen)” value turn out when B52 was run?
**A.** Its value is 0.49 nM.

**Q.** B53 was tested. Which “apparent Kd (screen)” value did it give?
**A.** The value was 0.446 nM.

**Q.** How did the “apparent Kd (screen)” value turn out when B54 was run?
**A.** Its value is 18.3 nM.

**Q.** Which “apparent Kd (screen)” value does the source give for B55 here?
**A.** The value was 0.79 nM.
